In patent publication US20250195556A1, “COMPOSITIONS, KITS, AND METHODS TO INDUCE ACQUIRED CYTORESISTANCE USING STRESS PROTEIN INDUCERS” (FRED HUTCHINSON CANCER RESEARCH CENTER, priority 2014, published 2025):

Columns and labels:
HO-1 [1] = assay: Renal cortical HO-1 mRNA and protein after FeS, SnPP or B12; type: in vivo, mice; details: for HO-1 protein increases (FIG. 21): within 4 hrs and persists for 18 hrs of IV injection
Description: (§1) Methods. Male CD-1 mice (25-40 grams) Charles River, Wilmington, MA) were used for all experiments. They were housed under standard vivarium conditions with free food and water access. All experiments were approved by the Fred Hutchinson Cancer Research Center IACUC in accordance with NIH guidelines.
Effects of FeS, SnPP, and B12 on renal cortical induction of heme oxygenase 1 (HO-1). The following experiments assessed the effects of FeS, SnPP, and B12 on the possible induction of the cytoprotective protein HO-1. To this end, mice were injected with each of these agents, as noted above. Either 4 or 18 hrs later, they were anesthetized and the kidneys were removed through a midline abdominal incision. The renal cortices were dissected on ice and then extracted for protein and mRNA. The samples were then assayed for HO-1 protein by ELISA, and HO-1 mRNA by RT-PCR, factored by GAPDH levels. Five normal mice provided control values.

Male CD-1 mice [2] = assay: Maleate model of AKI (FeS, SnPP, FeS+SnPP); type: in vivo; details: 1 mg FeS or 1 μmole SnPP IV alone 18 hrs before maleate
Description: as §1
Effects of Fe sucrose (FeS)/tin protoporphyrin (SnPP) on AKI severity. Maleate model of AKI. When injected into rodents, maleate undergoes relatively selective proximal tubule cell uptake via organic anion transporters. Once intracellular accumulation occurs, maleate is a preferred substrate for succinyl-CoA: 3-oxoacid CoA transferase. […] Ample levels of CoA are essential for fatty acid “activation”, allowing for their subsequent metabolism through the Krebs cycle, yielding ATP. In the absence of this process, proximal tubule ATP depletion and cell injury result. Additionally, maleate conjugates the sulfhydryl group of glutathione (GSH), culminating in GSH depletion and potential oxidant tubular stress.
The following experiment tested whether FeS, SnPP or combined FeS+SnPP can mitigate this form of acute kidney injury (AKI). […] The severity of kidney injury was assessed by determining plasma blood urea nitrogen (BUN) and plasma creatinine (PCr) concentrations.

[3] = read-out: affinity to heme (KD); cited from earlier work
HK-2 cells = assay: Myoglobin toxicity in HK-2 cells, MTT assay; type: cell-based; details: equimolar Na nitrite, 10 mg/ml, 18 hr
Description: Example 3. […] HK-2 cells (a proximal tubule cell line derived from normal human kidney) were incubated in keratinocyte serum free medium either under normal (control) conditions or in the presence of 10 mg/mL horse skeletal muscle myoglobin or nitrited myoglobin (produced by equimolar Na nitrite addition to 10 mg/ml myoglobin). After 18 hr incubations, the severity of cell injury (% cell death) was assessed by MTT assay. Myoglobin induced 40% cell death (40% decrease in MTT cell uptake), compared to control incubated cells. Nitrite binding to myoglobin reduced cell death by 75%. Thus, nitrite binding is able to reduce myoglobin's cytotoxic effects.

[4] = Serum creatinine after 2 hr subcutaneous infusion of nitrited myoglobin + SnPP; type: in vivo, mice; details: 2 hr subcutaneous infusion of 1, 3, 6, 12, or 25 mg/Kg + 1 μmole SnPP; 18 hrs later
Description: Mice were subjected to a 2 hr subcutaneous infusion of 1, 3, 6, 12, or 25 mg/Kg of nitrited myoglobin (holding SnPP at a constant dose of 1 μmole). Eighteen hrs later, potential renal injury was assessed by measuring serum creatinine concentrations.
An obvious concern by applying this prophylactic strategy to patients is potential renal and/or extrarenal toxicities. […] Furthermore, it was previously documented in a cell culture system that nitrite addition markedly reduces myoglobin's cytotoxic effects by 75% (unpublished data, 2014). To assess the potential in vivo margin of safety for N-Mgb+SnPP (see Supplemental FIGs.), the maximal amount of N-Mgb that could be given to mice before nephrotoxicity was observed was tested. Up to 25 times the employed N-Mgb dose (with a constant SnPP dose) could be administered (over 2 hours) without induction of nephrotoxicity (normal BUN and creatinine, 18 hours later).

HO-1 [5] = assay: Renal cortical HO-1 mRNA and protein after IV N-Mgb, SnPP or both; type: in vivo, mice
Description: (§2) Cytoresistance-inducing reagents. […] (#Mb0360; Sigma) was used as the primary cytoresistance-inducing agent. However, because myoglobin (Mgb) has an inherent nephrotoxic potential (particularly under conditions of volume depletion and aciduria), two approaches were used to mitigate Mgb's potential adverse effects. First, the Mgb was converted into a nitrited form by the addition of equimolar amount of sodium (Na) nitrite. In this regard, nitrite is an ambidentate molecule that directly binds 1:1 to myoglobin Fe either via its oxygen or nitrogen component. Cotton et al. Advanced inorganic chemistry. Hobocken, NJ: Wiley-Interscience, 1999:1355; Silaghi-Dumitrescu et al. Nitric Oxide 2014; 42 C: 32-9. […] Rassaf et al. Circ Res 2014; 114:1601-10; Totzeck et al. Circulation 2012; 126:325-34 [J Clin Invest 1992; 89:989-95]; Totzeck et al. PLOS One 2014; 22: e105951; Hendgen-Cotta et al. Proc Natl Acad Sci USA 2008; 105:10256-61.
(§3) Thirty-two mice were divided into 4 equal groups: (1) control mice; (2) mice treated with 1 mg of N-Mgb injection (as a bolus through the tail vein); (3) mice treated with […] of SnPP (via tail vein); and (4) mice treated with combined N-Mgb 1 SnPP. After either 4 hours (n=16) or 18 hours (n=16), the mice were deeply anesthetized with pentobarbital (50 mg/kg), the abdomen was opened through a midline abdominal incision, and the kidneys were removed. To determine potential effects on extrarenal organs, a liver lobe and the heart were also removed. The tissues were iced and then extracted for protein and RNA (RNeasy Plus Mini; Qiagen, Valencia, California) and subjected to enzyme linked immunosorbent assay (ELISA) and reverse transcriptase polymerase chain reaction (RT-PCR) for HO-1, haptoglobin, and IL-10 protein and messenger RNAs (mRNAs). Zager et al. J Am Soc Nephrol 2014; 25:998-1012; Zager et al. Am J Physiol 2012; 303: F139-48. As an assessment of renal function, control mice and the 18 hour after N-Mgb+SnPP-treated mice had blood urea nitrogen (BUN) and plasma creatinine levels measured. Additionally, transverse 10% formalin fixed kidney sections ([…]) were cut and stained with hematoxylin and eosin (H&E) and periodic acid Schiff (PAS) to further assess potential injury.

haptoglobin [6] = assay: Renal cortical haptoglobin mRNA and protein after IV N-Mgb, SnPP or both; type: in vivo, mice
Description: as §2, §3

IL-10 [7] = assay: Renal cortical IL-10 mRNA and protein after IV N-Mgb, SnPP or both; type: in vivo, mice; details: for Kidney protein: IL-10: control 304
Description: as §2, §3

Male CD-1 mice [8] = assay: Glycerol model of rhabdomyolysis-induced AKI (Example 4); type: in vivo; details: IV pretreatment 18 hours before glycerol; 18 hours after glycerol
Description: Assessments of cytoresistance. Glycerol model of rhabdomyolysis-induced AKI. Twenty mice were divided into 4 equal groups (controls, mice treated with N-Mgb, SnPP, and mice treated with N-Mgb+SnPP tail vein injections) as described previously. 18 hours later, the mice were briefly anesthetized with isoflurane and immediately injected with 9 mL/kg of 50% glycerol, administered in equally divided doses into each hind limb. At 18 hours after glycerol injection, the mice were anesthetized with pentobarbital, the abdomen was opened, a blood sample for BUN and creatinine assessments was obtained from the vena cava, and the kidneys were resected. The control post-glycerol group and the N-Mgb+SnPP-pretreated glycerol group had kidney sections stained with H&E.
Calculations and statistics. All values are given as the mean […] standard error of the mean. Statistical comparisons were made by unpaired Student's t test. If multiple comparisons were made, the Bonferroni correction was applied. The severity of renal histologic injury in the glycerol AKI model was graded on a […] (least to most severe tubular necrosis and cast formation observed). The histologic results were compared by Wilcoxon rank sum test. Statistical significance was taken as a P value of <0.05.

HO-1 [9] = assay: Liver HO-1 mRNA and protein after IV N-Mgb, SnPP or both; type: in vivo, mice; details: for Liver mRNA: HO-1: control 1.1; for Liver protein: HO-1 protein: control 10.2
Description: as §3

haptoglobin [10] = assay: Liver haptoglobin mRNA and protein after IV N-Mgb, SnPP or both; type: in vivo, mice; parameters: Liver protein: Haptoglobin: unit not given beside the values; details: for Liver mRNA: Haptoglobin: control 0.5; for Liver protein: Haptoglobin: control 115.3
Description: as §3

IL-10 [11] = assay: Liver IL-10 mRNA and protein after IV N-Mgb, SnPP or both; type: in vivo, mice; details: for Liver mRNA: IL-10: control 0.06; for Liver protein: IL-10: control 314
Description: as §3

HO-1 [12] = assay: Cardiac HO-1 mRNA and protein after IV N-Mgb, SnPP or both; type: in vivo, mice; details: for Cardiac mRNA: HO-1: control 0.07
Description: as §3

haptoglobin [13] = assay: Cardiac haptoglobin mRNA and protein after IV N-Mgb, SnPP or both; type: in vivo, mice; details: for Cardiac mRNA: Haptoglobin: control 0.31; for Cardiac protein: Haptoglobin: control 15.6
Description: as §3

IL-10 [14] = assay: Cardiac IL-10 mRNA and protein after IV N-Mgb, SnPP or both; type: in vivo, mice; details: for Cardiac mRNA: IL-10: control 0.36
Description: as §3

Molecule: cyanocobalamin [B12]
- HO-1 protein increases (FIG. 21) (HO-1 [1]): marked HO-1 protein increases

Molecule: iron sucrose [FeS]
- Severity of maleate-induced renal injury (BUN, PCr) (Male CD-1 mice [2]): Neither SnPP alone nor FeS alone significantly altered
- Renal cortical HO-1 protein levels (HO-1 [1]; 18 hr time point): remained elevated
- HO-1 protein increases (FIG. 21) (HO-1 [1]): marked HO-1 protein increases

B1: Hemopexin: 60 kDa plasma protein that sequesters free heme; protective stress protein (background) (protein, listed as Homo sapiens)
chain: MARVLGAPVALGLWSLCWSLAIATPLPPTSAHGNVAEGETKPDPDVTERCSDGWSFDATTLDDNGTMLFFKGEFVWKSHKWDRELISERWKNFPSPVDAAFRQGHNSVFLIKGDKVWVYPPEKKEKGYPKLLQDEFPGIPSPLDAAVECHRGECQAEGVLFFQGDREWFWDLATGTMKERSWPAVGNCSSALRWLGRYYCFQGNQFLRFDPVRGEVPPRYPRDVRDYFMPCPGRGHGHRNGTGHGNSTHHGPEYMRCSPHLVLSALTSDNHGATYAFSGTHYWRLDTSRDGWHSWPIAHQWPQGPSAVDAAFSWEEKLYLVQGTQVYVFLTKGGYTLVSGYPKRLEKEVGTPHGIILDSVDAAFICPGSSRLHIMAGRRLWWLDLKSGAQATWTELPWPHEKVDGALCMEKSLGPNSCSANGPGLYLIHGPNLYCYSDVEKLNAAKALPQPQNVTSLLGCTH
- Kd [3]: < 1 pM

B2: N-Mgb: horse skeletal muscle myoglobin converted into a nitrited form by addition of equimolar sodium nitrite (protein, UniProt P68082 2-154, looked up)
Myoglobin: GLSDGEWQQVLNVWGKVEADIAGHGQEVLIRLFTGHPETLEKFDKFKHLKTEAEMKASEDLKKHGTVVLTALGGILKKKGHHEAELKPLAQSHATKHKIPIKYLEFISDAIIHVLHSKHPGDFGADAQGAMTKALELFRNDIAAKYKELGFQG
modifications: nitrited with sodium nitrite
- Reduction of myoglobin-induced cell death by nitrite binding (HK-2 cells): 75%
- Serum creatinine concentrations [4]: No significant increase
- Kidney mRNA: HO-1 (HO-1 [5]; 4 h after Rx, control 0.61): 3.38 ± 0.38
- Kidney HO-1 protein (HO-1 [5]; 4 h after Rx, control 13.3): 36.1 ± 2.9
- Kidney mRNA cortex: HO-1 (HO-1 [5]; 18 h after Rx, control 0.61): 0.58 ± 0.18
- Kidney protein: HO-1 (HO-1 [5]; 18 h after Rx, control 13.3): 30 ± 6
- Kidney mRNA: Haptoglobin (haptoglobin [6]; 4 h after Rx, control 0.20): 1.94 ± 0.31
- Kidney protein: Haptoglobin (haptoglobin [6]; 4 h after Rx, control 7.9): 17.6 ± 1^
- Kidney mRNA cortex: Haptoglobin (haptoglobin [6]; 18 h after Rx, control 0.20): 0.24 ± 0.04
- Kidney protein: Haptoglobin (haptoglobin [6]; 18 h after Rx, control 10.3): 183.8 ± 20.4
- Kidney mRNA: IL-10 (IL-10 [7]; 4 h after Rx, control 0.56): 1.45 ± 0.6
- Kidney protein: IL-10 (IL-10 [7]; 4 h after Rx): 265 ± 54
- Kidney mRNA cortex: IL-10 (IL-10 [7]; 18 h after Rx, control 0.56): 0.43 ± 0.10
- Kidney protein: IL-10 (IL-10 [7]; 18 h after Rx): 292 ± 54
- Protection against glycerol-induced AKI (BUN/creatinine levels) (Male CD-1 mice [8]): modest protection
- Liver mRNA: HO-1 (HO-1 [9]; 4 h after Rx): 1.83 ± 0.33
- Liver protein: HO-1 protein (HO-1 [9]; 4 h after Rx): 17 ± 2
- Liver mRNA: HO-1 (HO-1 [9]; 18 h after Rx): 0.82 ± 0.07
- Liver protein: HO-1 protein (HO-1 [9]; 18 h after Rx): 14.9 ± 0.3
- Liver mRNA: Haptoglobin (haptoglobin [10]; 4 h after Rx): 0.98 ± 0.1
- Liver protein: Haptoglobin (haptoglobin [10]; 4 h after Rx): 359.5 ± 39.6
- Liver mRNA: Haptoglobin (haptoglobin [10]; 18 h after Rx): 0.91 ± 0.07
- Liver protein: Haptoglobin (haptoglobin [10]; 18 h after Rx): 358.8 ± 32.8
- Liver mRNA: IL-10 (IL-10 [11]; 4 h after Rx): 0.67 ± 0.46
- Liver protein: IL-10 (IL-10 [11]; 4 h after Rx): 286 ± 32
- Liver mRNA: IL-10 (IL-10 [11]; 18 h after Rx): 0.06 ± 0.02
- Liver protein: IL-10 (IL-10 [11]; 18 h after Rx): 5988 ± 549
- Cardiac mRNA: HO-1 (HO-1 [12]; 4 h after Rx): 0.09 ± 0.01
- Cardiac protein: HO-1 (HO-1 [12]; 4 h after Rx, control 1.50): 1.64 ± 0.19
- Cardiac mRNA: HO-1 (HO-1 [12]; 18 h after Rx): 0.08 ± 0.01
- Cardiac mRNA: Haptoglobin (haptoglobin [13]; 4 h after Rx): 0.75 ± 0.10
- Cardiac protein: Haptoglobin (haptoglobin [13]; 4 h after Rx): 40.4 ± 8.6
- Cardiac mRNA: Haptoglobin (haptoglobin [13]; 18 h after Rx): 0.53 ± 0.21
- Cardiac protein: Haptoglobin (haptoglobin [13]; 18 h after Rx): 249.6 ± 15.0
- Cardiac mRNA: IL-10 (IL-10 [14]; 4 h after Rx): 0.86 ± 0.11
- Cardiac protein: IL-10 (IL-10 [14]; 4 h after Rx, control 8.1): 21 ± 12
- Cardiac mRNA: IL-10 (IL-10 [14]; 18 h after Rx): 0.67 ± 0.10
- Cardiac protein: IL-10 (IL-10 [14]; 18 h after Rx, control 8): 14.5 ± 10^
